Test results from a protein production outcome set (Wang et al. 2014).

assay: label from the status in PepcDB records

**Q.** With “MEYQLQQLASLTLVGIKETYENGRQAQQHIAGFWQRCYQEGVIADLQLKNNGDLAGILGLCIPELDGKMSYMIAVTGDNSADIAKYDVITLASSKYMVFEAQGAVPKAVQQKMEEVHHYIHQYQANTVKSAPFFELYQDGDTTSEKYITEIWMPVKG” as the sequence, how does the protein production read?
**A.** not failed

**Q.** With “MEYSTDLGRRVLLTLAGVALLLVVGLVLSQFLPTLVFTVFLYYASRPIYRRLGRLPLPKSFLKRAVPYQKQVHAAATIFFFLLPFVVLVGYTLVLVIPELQSFFGEGGLGAAYLSQFQELQGGSPPGPLADLGFSEVLAMGPAEVIDLLRNATVQSWLGRVSDTLIGSLSLLTSLLLRVFIMFAGTYYLLTDGPRLVGWFLDTFDGSGVLREYAAAVDEELSSILFGNILNALVTGVIGIFVFSLYNLVAPGSVQIPFAPLVGALTGIGSLIPVVGMKIVYLPVAVLLAVSAVVTGQTAALAWVALFLVVTLVVVDTIPDFLIRPYVSGDLTHVGLLMFAYILGPIAFGFYGIFLGPMLLVLAAQFFRIIVPYIITGTVETTQTSLSEYDSGES” as the sequence, how does the protein production read?
**A.** failed

**Q.** With “MEYTTLAVLAGLPEDPHGAVGLPIYAVAAYGFKTLEEGQERFATGEGYVYARQKDPTAKALEERLKALEGALEAVVLASGQAATFAALLALLRPGDEVVAAKGLFGQTIGLFGQVLSLMGVTVRYVDPEPEAVREALSAKTRAVFVETVANPALLVPDLEALATLAEEAGVALVVDNTFGAAGALCRPLAWGAHVVVESLTKWASGHGSVLGGAVLSRETELWRNYPQFLQPDLKGQIPWEALRARCFPERVRTLGLSLCGMALSPFNAYLLFQGLETVALRVARMSETARFLAERLQGHPKVKALRYPGLPEDPAHRNARKYLASGGPILTLDLGDLERASRFLGAIRLLKAANLGDARTLLVHPWTTTHSRLKEEARLQAGVTPGLVRVSVGLEDPLDLLALFEEALEAV” as the sequence, how does the protein production read?
**A.** not failed

**Q.** With “MEYVNPEGLRLDGRRFNEMRQIVAEVGVVSKADGSAVFEMGNTKVIAAVYGPREIQNKSQQKKNDHAVVLCEYSMAQFSTGDRRRQKFDRRSTELSLVIRQTMEACILTELMPHSQIDIFLQVLQADGGTRSACINAATLALADAGIPMRDLAVSCSAGYLNSTPLLDLNYVEDSAGGADVTVGILPKLDKVSLLQMDAKLPMETFETVFALASEGCKAIAERIREVLQENTKQLEYRRAA” as the sequence, how does the protein production read?
**A.** failed

**Q.** For “MEYVYAALILNEADEEINEDNLTDVLDAAGVDVEESRVKALVAALEDVDIEEAVDQAAAAPVPASGGAAAPAEGDADEADEADEEAEEEAADDGGDDDDDEDDEASGEGLGELFGLEHHHHHH”, which protein production is on record?
**A.** not failed

**Q.** Which protein production does the source give for “MFALISKINPGAWWLIFAIATDVLSTFYSAKGNGLVNKTAQGIALVLYIISFACAAIALKYMQAGILYVLWSGVGVLATAFLAKIFLGQNIDVAGWIGIGFITVGLMIIAQYY” here?
**A.** failed

**Q.** With “MFALPQAGDRRGEIIKVLLSNGWDYMNGLLTLGKVGEPQIPTPEVLTKILVELGPFYIKLGQLLSTRPDLLPPRYINALTALQSNVPPLPWSAIEDLLQREFPQPLGETFQEIESEPIAAGSIGQIHRAVLQSGETVAIKVKRPGIDVIVEQDSLLIKDVAELLALTEFGQNYDIVKLADEFTQTVKAELNFDTEAAYTNNLRTNLAKTTWFDPNQLVIPKVYWELTNQKFLVLEWLDGVPILTADLTQPPSDKDIAEKKKEITTLLFRAFFQQLYVDGFFHADPHPGNIFYLADGRLALIDCGMVGRLDPRTRQLLTEMLLAIVDLDAKRCAQLTVELSESVGRVNFQRLEVDYERMLRKYYDLSLSEFNFSEVVYEFLRIARVNKLKVPACLGLYAKCLANLEGAG” as the sequence, how does the protein production read?
**A.** failed

**Q.** With “MFAQLVMGPAGSGKSTYCHALQQHGEIVGQLVHVVNLDPAAERFEYKPVADIRDLITVTDVAEELSLGPNGSLVYCMEYLLEDQDWLEQVLSETAEDDYLVFDMPGQIELYTHFECVRQFVYVLQSQFSMRVCSIFLLDAQFLADASKFFAGSLTAMAAMLHLGLPHLNVLSKADLLRHRIEHRDNTLEPLSSDAEAPNSDEALDEFLERFLNPDIQSLVSELSEQMDTRYRALNERIGALLEDYAIVQFVPYSATDEDSIGELLLRANLLLQYDDDRDVRIHPELD” as the sequence, how does the protein production read?
**A.** failed

**Q.** For “MFASLVIPVSAQANSGEMPQEQQLAVKYMDALTEHDYKTLITFYNRDSIFFDKTANRKYTGGRFIIDFLERAHQGVLEYDFNIEHMYNAGSLVVMIGNYHFKGPGEQFGKPGKIIDVAIPAVTSLKLDMLNRRVTEHVDLIDYQTMSDQLAMQ”, which protein production is on record?
**A.** not failed

**Q.** For “MFCTLAGYRWLNSGSLLRRLSQRAVRRLPTAPLCHLHNGATESAASNGALRIVDEKVAYRRYATVFERTVQYPDGRHVTYDILGQPAVQSASVLVFPFDTQSKTCYVIREYCPGPNRVLYGFPAGMVETKHESLEAAARAELSEEAHLRCAQLIDLTAQAAVWERSFEVPNTASDAENCLRGFFADKYSRNVCKMYLALNPEPDGHPGSMDAEELIEQVGAVRVPQLEAWLWSGQMTMPHMLLAMCALTYLRQRGMLT”, which protein production is on record?
**A.** failed

**Q.** For “MFDRLKNGEKIAPIVKEVESQITEVHKRADEVIESNQFRVLESFGKHKISDSHFIPTTGYGYDDIGRDTLEKVYADVFGAEAGLVRPQIISGTHAISTALFGILRPGDELLYITGKPYDTLEEIVGVRGKGVGSFKEYNIGYNAVPLTEGGLVDFEAVAAAIHSNTKMIGIQRSKGYATRPSFTISQIKEMIAFVKEIKPDVVVFVDNCYGEFIEEQEPCHVGADLMAGSLIKNPGGGIVKTGGYIVGKEQYVEACAYRLTSPGIGAEAGASLYSLQEMYQGFFLAPHVAGQALKGAIFTAAFLEKLGMNTSPAWNAPRTDLIQSVQFDDKDRMIAFCQAIQYASPINSHFTPYANYMPGYEDDVIMAAGTFIQGASIELSADGPIRPPYVAYVQGGLTYSHVKIAICSAIDELIEKNLLTISLEHHHHHH”, which protein production is on record?
**A.** not failed

**Q.** Which protein production does the source give for “MFEASTFLLFMGSAIMLIIIPGPDLVFTITQGMTNGRKAGVITAMGLSLGNIVHTLAAVLGLSLIIQTSVVVFTIFKLAGAMYLFYLAYKALKHRKEEIRVNSEKTNDLKGLFLRGLIMNVLNPKVAIFYLTFLPQFVNYQSANISLQLCILGLIFIIMTAIIFSIFGYFSGTFRDRLLKNSRFNEYMNIAATIIFIGLGLKLMTTQL” here?
**A.** failed

**Q.** With “MFEGERHMFDVQREELIWGDRKLVLETGKTARQADGSVVATYGETTVLATVVAGKEPKAGIDFLPLTVNYQERAYAAGRIPGGYFKREGRPSEKETLVSRLIDRPIRPLFVEGWRNDTQVVVTVLSHDLENDPDIVAMVAASAALTLSGVPFMGPIGAARVGYLNGGYKLNPLVTEIAESTLDLVVAGTQDAVLMVESEAKELSEDVMLGAVMFGHKHFQPVIEAIIRLAEKAAKEPRDFTPPENADVEAAVLAVAETELREAYKKTVKQERYAAVDAVKAKVVAALCPAEGEQKFSPEKVKAAFKEAQSKVVRWNILDTGSRIDGRDVKTVRSIVSEVGVLPRAHGSSLFTRGETQALVVATLGTGEDEQFIDALEGTYKERFLLHYNFPPYSVGETGRMGSPGRREIGHGKLAWRAIRPVLPPAHEFPYTIRVVSEITESNGSSSMASVCGGSLSLMDAGVPLRRPVAGIAMGLILEGERFAVLSDILGDEDHLGDMDFKVAGSEEGITSLQMDIKIAGITEEIMKIALAQAKDGRAHILGEMSKALTAARPELGEYAPRIETMQIPTDKIRDVIGTGGKIIREIVEKTGAKINIEDTGIVKIASSDGKAIKAAYNWIRSIVAEPEAGTIYDGTIVKIMEFGAFVNFFGAKDGLVHISELAAQRVAKVGDVVKEGQKVKVKFLGADERGKIRLSMKVVDQETGEDLTEKLKAERAERGEPEREERSDRGDRGDRGPRRDRGERRRESSGE” as the sequence, how does the protein production read?
**A.** failed

**Q.** With “MFEKQFNHRTLETSLGPVEIEGPVTSQILATYKLDPGLTAFRQPAEQHEALVEIAALEEGRIIIARQGNDIIGYVTFLYPDPYETWSEGNNPYILELGAIEVAARFRGQQIGKKLLEVSMLDPAMEHYLILTTEYYWHWDLKGSGLSVWDYRKIMEKMMNHGGLVFFPTDDPEIASHPANCLMARIGKHVAPEVVAHFDALRLRRRFMYD” as the sequence, how does the protein production read?
**A.** not failed

**Q.** For “MFESAEVGHSIDKDTYEKAVIELREALLEAQFELKQQARFPVIILINGIEGAGKGETVKLLNEWMDPRLIEVQSFLRPSDEELERPPQWRFWRRLPPKGRTGIFFGNWYSQMLYARVEGHIKEAKLDQAIDAAERFERMLCDEGALLFKFWFHLSKKQLKERLKALEKDPQHSWKLSPLDWKQSEVYDRFVHYGERVLRRTSRDYAPWYVVEGADERYRALTVGRILLEGLQAALATKERAKRQPHAAPLVSSLDNRGLLDSLDLGQYLDKDAYKEQLAAEQARLAGLIRDKRFRQHSLVAVFEGNDAAGKGGAIRRVTDALDPRQYHIVPIAAPTEEERAQPYLWRFWRHIPARRQFTIFDRSWYGRVLVERIEGFCAPADWLRAYGEINDFEEQLSEYGIIVVKFWLAIDKQTQMERFKEREKTPYKRYKITEEDWRNRDKWDQYVDAVGDMVDRTSTEIAPWTLVEANDKRFARVKVLRTINDAIEAAYKKDK”, which protein production is on record?
**A.** not failed

**Q.** With “MFGFFSPAPAIPRLPKDKVSSAYKAYRIRMFLMIFIGYTGYYLVRKNFAVASPYLIDNYGFSKTQIGLISMGLAVSYGLSKFILGNLSDKSNVKKFICFGLIASSVLSVLMGFARTVPIFLILMVFNGFFQGMGAPPCSIVLGKWFSQKERGLKMGIWNTSHNIGGGLIAPIATLCLLVFGQNHFQSIFFVPAIICTIVALFCYVIGADTPASVGLPPVEEYRNDYPEVKAEVNPTTLSSKEIMVKYVLKNKYVWYLALANIFVYLIRQGVVNWIPIYLKESKGFSAANANWAMFLFEYAAIPASILLGWLSDVVFKGKRAPLSILCMIGVIFATVAYWQTSSTLVTMISVAFIGCFIYGPQLLIGMNLIDVVPNFAVGSATGFSGLCGYLLGEFMADFVLGMIADSFGWNGAFIFIIVGAFIALLLLALTLKIKKNPQVEDKIA” as the sequence, how does the protein production read?
**A.** failed

**Q.** Which protein production does the source give for “MFGGAKGGHFGVPPAGYSGAVPQSEAGTKAGPAGGRPADTMWRVRCKAKGGTHLLQGLSSRTRLRELQGQIAAITGIAPGSQRILVGYPPECLDLSDRDITLGDLPIQSGDMLIVEEDQTRPKASPAFSKYGAPSYVREALPVLTRTAVPADNSCLFTSVYYVVEGGVLNPACAPEMRRLIAQIVASDPVLYSEAILGKTNEDYCDWIRRDDTWGGAIEISILSKFYQCEICVVDTQTVRIDRFGEDAGYTKRVLLIYDGIHYDPLQRNFPDPDTPPLTIFSSNDDIVLVQALELADEARRKRQFTDVNRFTLRCMICQKGLTGQAEARDHARETGHTNFGEV” here?
**A.** failed

**Q.** With “MFGRCVRVKENMTYTEFVRTLSEAFSLKSTEINPIISYWMPGEMLVMIDTKRLPVYIDSQVGLNTFFMIRGRYPSLNLFVSFITTVKTLENNVSRTHGDDAESDRVSNVDENNEAVDEQDDVEDDKTDEDEEEGDNEDGDGYDDYQGDDGSMGGSTLDPTIDGSESNGEDYDYNKWNDVIVEEYGIGNVEENVILIPGEFSRLLAECTYTS” as the sequence, how does the protein production read?
**A.** failed

**Q.** For “MFGRDGRLKESRVQKPERQQRLFGLSTPLRSAVIPPLSAARWLLVLIVAAGVYFFHGFLFPVLAALVIAFASWPLYQRLLAGVGGNRTIAATLAILFILAFLVIPIALAGTYAINEVREWVGWAIETNRHGAVTPHWIATMPVVGDWLNEQWTTNFGHPGGIGELIQLISGANIGSIYRGALAAGGSAFGLLLTLLFMMIALFFAYRDGEHFAGQVDRLGERILPTRWERISRVVPATISSTVTGMTVIAIGEGLVLGIAYWLAGVPSPVTLGALTGVMALIPGGAPLSFTLVSIYLAASGSPMAGLALFLWGAVELFIVDKTLRPKLVGGPIKLPFLPTFFGLIGGVKTMGFLGLFIGPVLMALLVAIWREWLREVELVDELAAGSAAEIEATPQIEVLPEPGVAKKARA”, which protein production is on record?
**A.** failed

**Q.** Which protein production does the source give for “MFHAAFMEERVFSDRGSMRNACSSIEYDGCRQGQSGPLLEEKEVKRKLFGALALVAMLAAPALAEAATRGFATANVNMRSGPSTAYPAVVVIPVGAPLTVHGCLSDTPWCDVSFVNGRGWVAGRYIQTTFRQNRVYVEPRYYRDLGVPVITFEAGRYWDRYYRDRDFYRERDRWRRPPPSGGYWNAPPPSAGWDRPRPRDDWRDGRRDDGRRDEWRDPRQGGPNDGRWERRYGDWNQGDRNQDRPRRDDDRRRWEDENRDRNRDRDSNRDGNRDRPQNQYDGQRGQLEGQPRPPAPAPDAPLQGCIIGSPGCAQRLEHHHHHH” here?
**A.** not failed
